Here are results for 3 molecules from patent publication US20230242640A1 (published 2023).

The target in assay [1] is T1, recombinant hSIRPg-His (Sino Biologicals reference 11828-H08H) (human, UniProt Q9P1W8 29-360).
T1 chain: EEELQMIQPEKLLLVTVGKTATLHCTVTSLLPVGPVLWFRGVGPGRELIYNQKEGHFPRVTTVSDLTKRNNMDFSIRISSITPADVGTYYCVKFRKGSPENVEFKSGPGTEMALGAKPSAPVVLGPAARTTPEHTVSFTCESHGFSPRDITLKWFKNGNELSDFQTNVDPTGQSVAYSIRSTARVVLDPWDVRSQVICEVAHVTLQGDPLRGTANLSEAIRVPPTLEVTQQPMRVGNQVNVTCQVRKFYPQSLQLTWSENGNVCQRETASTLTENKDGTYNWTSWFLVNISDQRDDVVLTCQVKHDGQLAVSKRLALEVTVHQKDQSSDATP
Briefly: competition ELISA with CD47-Fc. (In general: In an ELISA, binding on a coated surface is turned into a signal by an enzyme label.)

The target of assay [2] is T2, peptide human SIRPgamma VKFRKGSPENVEFKSGPGTEMALGAKPSA-6His.
T2 peptide: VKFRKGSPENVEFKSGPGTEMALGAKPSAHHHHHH
The experiment in a line: ELISA.

B1: anti-SIRPg antibody A5 (antibody, V domains shown)
VH: EVQLVESGGGVVRPGGSLRLSCAASGFTFDDYGMSWVRQAPGKGLEWVSGINWNGGSTGYADSVKGRFTISRDNAKNSLYLQMNSLRAEDTAVYYCARQMVKLWGQGTLVTVSR
VL: SSELTQDPAVSVALGQTVRITCQGDSLRSYYASWYQQKPGQAPVLVIYGKNNRPSGIPDRFSGSSSGNTASLTITGAQAEDEADYYCNSRDSSGNHVVFGGGTKLTVLR
The term IC50 denotes the midpoint of a concentration-inhibition curve. As usually defined, the EC50 is the concentration that produces a half-maximal response. In the case of B1, in assay [1], the IC50 is 0.045 µg/mL. In addition, the midpoint of the response in assay [2], the EC50, lay at 0.069 µg/mL.

B2: anti-SIRPg antibody A8 (antibody, V domains shown)
VH: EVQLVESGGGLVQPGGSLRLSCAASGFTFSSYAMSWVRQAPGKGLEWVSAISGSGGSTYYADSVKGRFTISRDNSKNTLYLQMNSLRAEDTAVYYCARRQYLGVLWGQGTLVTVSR
VL: SSELTQDPAVSVALGQTVRITCQGDSLRSYYASWYQQKPGQAPVLVIYGKNNRPSGIPDRFSGSSSGNTASLTITGAQAEDEADYYCNSRDSSGNHVVFGGGTKLTVLR
With B2, the IC50 in assay [1] came to 0.31 µg/mL. The EC50 in assay [2] worked out at 0.0258 µg/mL.

B3: anti-SIRPg antibody A1 (antibody, V domains shown)
VH: EVQLVESGGGVVRPGGSLRLSCAASGFTFDDYGMSWVRQAPGKGLEWVSGINWNGGSTGYADSVKGRFTISRDNAKNSLYLQMNSLRAEDTAVYYCARWIAKVWGQGTLVTVSR
VL: SSELTQDPAVSVALGQTVRITCQGDSLRSYYASWYQQKPGQAPVLVIYGKNNRPSGIPDRFSGSSSGNTASLTITGAQAEDEADYYCNSRDSSGNHVVFGGGTKLTVLR
For B3, the IC50 in assay [1] worked out at 0.19 µg/mL. Besides, in assay [2], the EC50 was found to be 0.0505 µg/mL.
